The source of these data is patent US10487121B2, “D-peptide inhibitors of HIV entry and methods of use” (priority 2016, dated 2019).

Read-outs that look alike come from different tables or passages of the source.

The nature of the data set: Rodent pharmacokinetics of PIE12-trimer and conjugates (Table 3 protocol). In kind it is in vivo, Sprague Dawley rats. Particulars: rats; for bioavailability: Sprague Dawley; for bioavailability / AUC(0-inf) / C0 / clearance / half-life / Vd / Cmax / Tmax: rat; for AUC(0-inf) / C0 / clearance / half-life / Vd / Cmax / Tmax: in vivo; for clearance: read-out: Cl (obs) (converted); for half-life: read-out: T1/2 (converted); for Vd: read-out: Vz (obs). On the procedure: At each timepoint, plasma was obtained using lithium heparin.
Samples were spiked with an internal standard then precipitated with two volumes of 98% acetonitrile/2% Formic acid. Supernatants were analyzed by LC/MS/MS using an Agilent HPLC system (Waters X-Bridge BEH C18 column) paired to an AB Sciex API 3000 triple-quad mass spectrometer using MRM methods. Lipid conjugates required lower source temperatures (300° C. vs 500° C.) for improved reproducibility.

Take `CCCCCCCCCCCCCCCCSC1CC(=O)N(CCC(=O)NCCOCCOCCOCCOCCOCCOCCOCCOCCOCCOCCOCCOCCOCCOCCOCCOCCOCCOCCOCCOCCOCCOCCOCCOCCC(=O)NC(COCCC(=O)NCCOCCOCCOCCOCCC(=O)NCCCC[C@@H](NC(=O)CNC(=O)[C@@H](CC(C)C)NC(=O)[C@@H](CCC(=O)O)NC(=O)[C@H]2CSSC[C@@H](NC(=O)[C@H]3CCCN3C(=O)[C@@H](Cc3c[nH]cn3)NC(C)=O)C(=O)N[C@H](CC(=O)O)C(=O)N[C@H](Cc3ccc(O)cc3)C(=O)N3CCC[C@@H]3C(=O)N[C@H](CCC(=O)O)C(=O)N[C@H](Cc3c[nH]c4ccccc34)C(=O)N[C@H](CCC(N)=O)C(=O)N[C@H](Cc3c[nH]c4ccccc34)C(=O)N[C@H](CC(C)C)C(=O)N2)C(N)=O)(COCCC(=O)NCCOCCOCCOCCOCCC(=O)NCCCC[C@@H](NC(=O)CNC(=O)[C@@H](CC(C)C)NC(=O)[C@@H](CCC(=O)O)NC(=O)[C@H]2CSSC[C@@H](NC(=O)[C@H]3CCCN3C(=O)[C@@H](Cc3c[nH]cn3)NC(C)=O)C(=O)N[C@H](CC(=O)O)C(=O)N[C@H](Cc3ccc(O)cc3)C(=O)N3CCC[C@@H]3C(=O)N[C@H](CCC(=O)O)C(=O)N[C@H](Cc3c[nH]c4ccccc34)C(=O)N[C@H](CCC(N)=O)C(=O)N[C@H](Cc3c[nH]c4ccccc34)C(=O)N[C@H](CC(C)C)C(=O)N2)C(N)=O)COCCC(=O)NCCOCCOCCOCCOCCC(=O)NCCCC[C@@H](NC(=O)CNC(=O)[C@@H](CC(C)C)NC(=O)[C@@H](CCC(=O)O)NC(=O)[C@H]2CSSC[C@@H](NC(=O)[C@H]3CCCN3C(=O)[C@@H](Cc3c[nH]cn3)NC(C)=O)C(=O)N[C@H](CC(=O)O)C(=O)N[C@H](Cc3ccc(O)cc3)C(=O)N3CCC[C@@H]3C(=O)N[C@H](CCC(=O)O)C(=O)N[C@H](Cc3c[nH]c4ccccc34)C(=O)N[C@H](CCC(N)=O)C(=O)N[C@H](Cc3c[nH]c4ccccc34)C(=O)N[C@H](CC(C)C)C(=O)N2)C(N)=O)C1=O` (stereo partly shown) [C16-PIE12-Trimer]: under “SC, 1.0 mg/kg, plasma, median”, the bioavailability – broadly, dose-corrected exposure relative to a reference, in per cent – was 38%; the AUC(0-inf) (as a rule, total exposure, with the tail of the curve extrapolated) was 442 nM·h; the Cmax – broadly, the maximum level reached in the sampled fluid or tissue – was determined as 0.192 µM; the Tmax (commonly the time from dosing to the highest level) turned out to be 1 h. Moreover, the half-life (SC, 1.0 mg/kg, plasma, median) is 1.18 h. Besides, for the setting “IV, 1.0 mg/kg, plasma, median”, the AUC(0-inf) was determined as 1160 nM·h, the C0 is 1.88 µM, the clearance is 0.1 L/h/kg and the half-life was 0.93 h. Besides, the Vd (IV, 1.0 mg/kg, plasma, median) came out at 0.14 L/kg.

For `CCCCCCCCCCCCCCCCCCSC1CC(=O)N(CCC(=O)NCCOCCOCCOCCOCCOCCOCCOCCOCCOCCOCCOCCOCCOCCOCCOCCOCCOCCOCCOCCOCCOCCOCCOCCOCCC(=O)NC(COCCC(=O)NCCOCCOCCOCCOCCC(=O)NCCCC[C@@H](NC(=O)CNC(=O)[C@@H](CC(C)C)NC(=O)[C@@H](CCC(=O)O)NC(=O)[C@H]2CSSC[C@@H](NC(=O)[C@H]3CCCN3C(=O)[C@@H](Cc3c[nH]cn3)NC(C)=O)C(=O)N[C@H](CC(=O)O)C(=O)N[C@H](Cc3ccc(O)cc3)C(=O)N3CCC[C@@H]3C(=O)N[C@H](CCC(=O)O)C(=O)N[C@H](Cc3c[nH]c4ccccc34)C(=O)N[C@H](CCC(N)=O)C(=O)N[C@H](Cc3c[nH]c4ccccc34)C(=O)N[C@H](CC(C)C)C(=O)N2)C(N)=O)(COCCC(=O)NCCOCCOCCOCCOCCC(=O)NCCCC[C@@H](NC(=O)CNC(=O)[C@@H](CC(C)C)NC(=O)[C@@H](CCC(=O)O)NC(=O)[C@H]2CSSC[C@@H](NC(=O)[C@H]3CCCN3C(=O)[C@@H](Cc3c[nH]cn3)NC(C)=O)C(=O)N[C@H](CC(=O)O)C(=O)N[C@H](Cc3ccc(O)cc3)C(=O)N3CCC[C@@H]3C(=O)N[C@H](CCC(=O)O)C(=O)N[C@H](Cc3c[nH]c4ccccc34)C(=O)N[C@H](CCC(N)=O)C(=O)N[C@H](Cc3c[nH]c4ccccc34)C(=O)N[C@H](CC(C)C)C(=O)N2)C(N)=O)COCCC(=O)NCCOCCOCCOCCOCCC(=O)NCCCC[C@@H](NC(=O)CNC(=O)[C@@H](CC(C)C)NC(=O)[C@@H](CCC(=O)O)NC(=O)[C@H]2CSSC[C@@H](NC(=O)[C@H]3CCCN3C(=O)[C@@H](Cc3c[nH]cn3)NC(C)=O)C(=O)N[C@H](CC(=O)O)C(=O)N[C@H](Cc3ccc(O)cc3)C(=O)N3CCC[C@@H]3C(=O)N[C@H](CCC(=O)O)C(=O)N[C@H](Cc3c[nH]c4ccccc34)C(=O)N[C@H](CCC(N)=O)C(=O)N[C@H](Cc3c[nH]c4ccccc34)C(=O)N[C@H](CC(C)C)C(=O)N2)C(N)=O)C1=O` (stereo partly shown) [C18-PIE12-trimer], where the note is “SC, 1.0 mg/kg, plasma, median”, the bioavailability was 93%, the AUC(0-inf) was 713 nM·h, the Cmax worked out at 0.196 µM and the Tmax was found to be 2 h. Also, the half-life (SC, 1.0 mg/kg, plasma, median) was 1.39 h. Moreover, under “IV, 1.0 mg/kg, plasma, median”, the AUC(0-inf) stood at 766 nM·h, the C0 is 0.9 µM, the clearance is 0.15 L/h/kg and the half-life is 1.05 h. Besides, for the setting “IV, 1.0 mg/kg, plasma, median”, the Vd turned out to be 0.23 L/kg.

Consider `CCCCCCCCCCCCCCCC(=O)N[C@H](CSC1CC(=O)N(CCC(=O)NCCOCCOCCOCCOCCOCCOCCOCCOCCOCCOCCOCCOCCOCCOCCOCCOCCOCCOCCOCCOCCOCCOCCOCCOCCC(=O)NC(COCCC(=O)NCCOCCOCCOCCOCCC(=O)NCCCC[C@@H](NC(=O)CNC(=O)[C@@H](CC(C)C)NC(=O)[C@@H](CCC(=O)O)NC(=O)[C@H]2CSSC[C@@H](NC(=O)[C@H]3CCCN3C(=O)[C@@H](Cc3c[nH]cn3)NC(C)=O)C(=O)N[C@H](CC(=O)O)C(=O)N[C@H](Cc3ccc(O)cc3)C(=O)N3CCC[C@@H]3C(=O)N[C@H](CCC(=O)O)C(=O)N[C@H](Cc3c[nH]c4ccccc34)C(=O)N[C@H](CCC(N)=O)C(=O)N[C@H](Cc3c[nH]c4ccccc34)C(=O)N[C@H](CC(C)C)C(=O)N2)C(N)=O)(COCCC(=O)NCCOCCOCCOCCOCCC(=O)NCCCC[C@@H](NC(=O)CNC(=O)[C@@H](CC(C)C)NC(=O)[C@@H](CCC(=O)O)NC(=O)[C@H]2CSSC[C@@H](NC(=O)[C@H]3CCCN3C(=O)[C@@H](Cc3c[nH]cn3)NC(C)=O)C(=O)N[C@H](CC(=O)O)C(=O)N[C@H](Cc3ccc(O)cc3)C(=O)N3CCC[C@@H]3C(=O)N[C@H](CCC(=O)O)C(=O)N[C@H](Cc3c[nH]c4ccccc34)C(=O)N[C@H](CCC(N)=O)C(=O)N[C@H](Cc3c[nH]c4ccccc34)C(=O)N[C@H](CC(C)C)C(=O)N2)C(N)=O)COCCC(=O)NCCOCCOCCOCCOCCC(=O)NCCCC[C@@H](NC(=O)CNC(=O)[C@@H](CC(C)C)NC(=O)[C@@H](CCC(=O)O)NC(=O)[C@H]2CSSC[C@@H](NC(=O)[C@H]3CCCN3C(=O)[C@@H](Cc3c[nH]cn3)NC(C)=O)C(=O)N[C@H](CC(=O)O)C(=O)N[C@H](Cc3ccc(O)cc3)C(=O)N3CCC[C@@H]3C(=O)N[C@H](CCC(=O)O)C(=O)N[C@H](Cc3c[nH]c4ccccc34)C(=O)N[C@H](CCC(N)=O)C(=O)N[C@H](Cc3c[nH]c4ccccc34)C(=O)N[C@H](CC(C)C)C(=O)N2)C(N)=O)C1=O)C(=O)O` (stereo partly shown) [Palm-PIE12-trimer], for which, where the note is “IV, 1.2 mg/kg, plasma, median”, the AUC(0-inf) was found to be 2240 nM·h, the C0 was determined as 2.24 µM, the clearance is 0.061 L/h/kg and the half-life was 1.83 h. The Vd (IV, 1.2 mg/kg, plasma, median) is 0.14 L/kg. Also, for the setting “SC, 1.2 mg/kg, plasma, median”, the area under the curve AUC(0-inf) was 2310 nM·h, the Cmax was determined as 0.585 µM, the time of peak concentration (Tmax) stood at 1 h and the half-life is 2.23 h. For the same compound, the F (SC, 1.2 mg/kg, plasma, median) worked out at 103%. In addition, where the note is “IV”, the “increase of IV half-life vs PIE12-trimer” value is listed as above 3 fold and the “reduction of clearance vs PIE12-trimer” value is given as around 14 fold. Besides, the “bioavailability upon SC dosing, in words” value (SC) is recorded as “fully bioavailable”. For the same compound, the “extension of SC (apparent) half-life vs PIE12-trimer” value (SC, terminal phase elimination) is reported as around 3 fold.
